Laboratory results as given in the supplement of paper PMC5998384.

Experiments:
HeLa Kyoto [1] = assay: thermal stability score vs G1/S (z-score of summed log2 fold changes over temperatures); higher = more thermally stable than in G1/S
HeLa Kyoto [2] = assay: melting temperature (median over replicates), in situ; higher = more thermally stable
HeLa Kyoto [3] = assay: solubility in G1/S (NP-40 vs SDS abundance) (log2 ratio); higher = more soluble; details: cell cycle stage: G1/S
HeLa Kyoto [4] = assay: solubility change mitosis vs G1/S (difference of NP-40 vs SDS log2 ratios) (log2 ratio difference); higher = more soluble in mitosis
[5] = cell cycle stage: early G1 (4.5 h after nocodazole release)
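Throughout, for melting temperature (median over replicates), in situ: HeLa Kyoto cells synchronized by double thymidine or nocodazole block, proteins quantified by TMT10plex mass spectrometry, three independent biological replicates.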
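Throughout, for solubility change mitosis vs G1/S (difference of NP-40 vs SDS log2 ratios): synchronized HeLa Kyoto cells (double thymidine block for G1/S, nocodazole release for mitosis), protein amounts in NP-40 versus SDS lysates quantified by mass spectrometry, three biological replicates.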
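Throughout, for solubility in G1/S (NP-40 vs SDS abundance): HeLa Kyoto cells arrested at G1/S by double thymidine block, proteins quantified by TMT10plex mass spectrometry in mild NP-40 versus SDS extracts, three biological replicates.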
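Throughout, for thermal stability score vs G1/S (z-score of summed log2 fold changes over temperatures): synchronized HeLa Kyoto cells, proteins quantified by TMT10plex mass spectrometry, three biological replicates, mitosis taken 0.5 h after nocodazole release, G1/S directly after double thymidine block.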

Row | Sequence | thermal stability score (HeLa Kyoto [1]; [5]) | thermal stability score (HeLa Kyoto [1]; cell cycle stage: mitosis) | melting temperature (HeLa Kyoto [2]; cell cycle stage: G1/S) [°C] | melting temperature (HeLa Kyoto [2]; cell cycle stage: mitosis) [°C] | solubility in G1/S (log2) (HeLa Kyoto [3]) | solubility change mitosis (log2) (HeLa Kyoto [4])
1 | MEATGVLPFVRGVDLSGNDFKGGYFPENVKAMTSLRWLKLNRTGLCYLPEELAALQKLEHLSVSHNNLTTLHGELSSLPSLRAIVARANSLKNSGVPDDIFKLDDLSVLDLSHNQLTECPRELENAKNMLVLNLSHNSIDTIPNQLFINLTDLLYLDLSENRLESLPPQMRRLVHLQTLVLNGNPLLHAQLRQLPAMTALQTLHLRSTQRTQSNLPTSLEGLSNLADVDLSCNDLTRVPECLYTLPSLRRLNLSSNQITELSLCIDQWVHVETLNLSRNQLTSLPSAICKLSKLKKLYLNSNKLDFDGLPSGIGKLTNLEEFMAANNNLELVPESLCRCPKLRKLVLNKNHLVTLPEAIHFLTEIEVLDVRENPNLVMPPKPADRAAEWYNIDFSLQNQLRLAGASPATVAAAAAAGSGPKDPMARKMRLRRRKDSAQDDQAKQVLKGMSDVAQEKNKKQEESADARAPSGKVRRWDQGLEKPRLDYSEFFTEDVGQLPGLTIWQIENFVPVLVEEAFHGKFYEADCYIVLKTFLDDSGSLNWEIYYWIGGEATLDKKACSAIHAVNLRNYLGAECRTVREEMGDESEEFLQVFDNDISYIEGGTASGFYTVEDTHYVTRMYRVYGKKNIKLEPVPLKGTSLDPRFVFLLDRGLDIYVWRGAQATLSSTTKARLFAEKINKNERKGKAEITLLVQGQELPEFWEALGGEPSEIKKHVPEDFWPPQPKLYKVGLGLGYLELPQINYKLSVEHKQRPKVELMPRMRLLQSLLDTRCVYILDCWSDVFIWLGRKSPRLVRAAALKLGQELCGMLHRPRHATVSRSLEGTEAQVFKAKFKNWDDVLTVDYTRNAEAVLQSPGLSGKVKRDAEKKDQMKADLTALFLPRQPPMSLAEAEQLMEEWNEDLDGMEGFVLEGKKFARLPEEEFGHFYTQDCYVFLCRYWVPVEYEEEEKKEDKEEKAEGKEGEEATAEAEEKQPEEDFQCIVYFWQGREASNMGWLTFTFSLQKKFESLFPGKLEVVRMTQQQENPKFLSHFKRKFIIHRGKRKAVQGAQQPSLYQIRTNGSALCTRCIQINTDSSLLNSEFCFILKVPFESEDNQGIVYAWVGRASDPDEAKLAEDILNTMFDTSYSKQVINEGEEPENFFWVGIGAQKPYDDDAEYMKHTRLFRCSNEKGYFAVTEKCSDFCQDDLADDDIMLLDNGQEVYMWVGTQTSQVEIKLSLKACQVYIQHMRSKEHERPRRLRLVRKGNEQHAFTRCFHAWSAFCKALA [FLII] | -0.0623 | 0.353 | 49.5 | 49.5 | -0.172 | -0.0947
2 | MEAVLTEELDEEEQLLRRHRKEKKELQAKIQGMKNAVPKNDKKRRKQLTEDVAKLEKEMEQKHREELEQLKLTTKENKIDSVAVNISNLVLENQPPRISKAQKRREKKAALEKEREERIAEAEIENLTGARHMESEKLAQILAARQLEIKQIPSDGHCMYKAIEDQLKEKDCALTVVALRSQTAEYMQSHVEDFLPFLTNPNTGDMYTPEEFQKYCEDIVNTAAWGGQLELRALSHILQTPIEIIQADSPPIIVGEEYSKKPLILVYMRHAYGLGEHYNSVTRLVNIVTENCS [OTUD6B] | 0.405 | 0.425 | 49.9 | 50 | 0.512 | -0.0729
3 | MEDAGGGEETPAPEAPHPPQLAPPEEQGLLFQEETIDLGGDEFGSEENETASEGSSPLADKLNEHMMESVLISDSPNSEGDAGDLGRVRDEAEPGGEGDPGPEPAGTPSPSGEADGDCAPEDAAPSSGGAPRQDAAREVPGSEAARPEQEPPVAEPVPVCTIFSQRAPPASGDGFEPQMVKSPSFGGASEASARTPPQVVQPSPSLSTFFGDTAASHSLASDFFDSFTTSAFISVSNPGAGSPAPASPPPLAVPGTEGRPEPVAMRGPQAAAPPASPEPFAHIQAVFAGSDDPFATALSMSEMDRRNDAWLPGEATRGVLRAVATQQRGAVFVDKENLTMPGLRFDNIQGDAVKDLMLRFLGEKAAAKRQVLNADSVEQSFVGLKQLISCRNWRAAVDLCGRLLTAHGQGYGKSGLLTSHTTDSLQLWFVRLALLVKLGLFQNAEMEFEPFGNLDQPDLYYEYYPHVYPGRRGSMVPFSMRILHAELQQYLGNPQESLDRLHKVKTVCSKILANLEQGLAEDGGMSSVTQEGRQASIRLWRSRLGRVMYSMANCLLLMKDYVLAVEAYHSVIKYYPEQEPQLLSGIGRISLQIGDIKTAEKYFQDVEKVTQKLDGLQGKIMVLMNSAFLHLGQNNFAEAHRFFTEILRMDPRNAVANNNAAVCLLYLGKLKDSLRQLEAMVQQDPRHYLHESVLFNLTTMYELESSRSMQKKQALLEAVAGKEGDSFNTQCLKLA [TRAPPC12] | 0.55 | 0.59 | 50.1 | 49.2 | 0.188 | -0.258
4 | MEDLDQSPLVSSSDSPPRPQPAFKYQFVREPEDEEEEEEEEEEDEDEDLEELEVLERKPAAGLSAAPVPTAPAAGAPLMDFGNDFVPPAPRGPLPAAPPVAPERQPSWDPSPVSSTVPAPSPLSAAAVSPSKLPEDDEPPARPPPPPPASVSPQAEPVWTPPAPAPAAPPSTPAAPKRRGSSGSVDETLFALPAASEPVIRSSAENMDLKEQPGNTISAGQEDFPSVLLETAASLPSLSPLSAASFKEHEYLGNLSTVLPTEGTLQENVSEASKEVSEKAKTLLIDRDLTEFSELEYSEMGSSFSVSPKAESAVIVANPREEIIVKNKDEEEKLVSNNILHNQQELPTALTKLVKEDEVVSSEKAKDSFNEKRVAVEAPMREEYADFKPFERVWEVKDSKEDSDMLAAGGKIESNLESKVDKKCFADSLEQTNHEKDSESSNDDTSFPSTPEGIKDRSGAYITCAPFNPAATESIATNIFPLLGDPTSENKTDEKKIEEKKAQIVTEKNTSTKTSNPFLVAAQDSETDYVTTDNLTKVTEEVVANMPEGLTPDLVQEACESELNEVTGTKIAYETKMDLVQTSEVMQESLYPAAQLCPSFEESEATPSPVLPDIVMEAPLNSAVPSAGASVIQPSSSPLEASSVNYESIKHEPENPPPYEEAMSVSLKKVSGIKEEIKEPENINAALQETEAPYISIACDLIKETKLSAEPAPDFSDYSEMAKVEQPVPDHSELVEDSSPDSEPVDLFSDDSIPDVPQKQDETVMLVKESLTETSFESMIEYENKEKLSALPPEGGKPYLESFKLSLDNTKDTLLPDEVSTLSKKEKIPLQMEELSTAVYSNDDLFISKEAQIRETETFSDSSPIEIIDEFPTLISSKTDSFSKLAREYTDLEVSHKSEIANAPDGAGSLPCTELPHDLSLKNIQPKVEEKISFSDDFSKNGSATSKVLLLPPDVSALATQAEIESIVKPKVLVKEAEKKLPSDTEKEDRSPSAIFSAELSKTSVVDLLYWRDIKKTGVVFGASLFLLLSLTVFSIVSVTAYIALALLSVTISFRIYKGVIQAIQKSDEGHPFRAYLESEVAISEELVQKYSNSALGHVNCTIKELRRLFLVDDLVDSLKFAVLMWVFTYVGALFNGLTLLILALISLFSVPVIYERHQAQIDHYLGLANKNVKDAMAKIQAKIPGLKRKAE [RTN4] | -0.746 | -1.43 | 56.6 | 56.7 | -0.0792 | -0.155
5 | MEDYLQGCRAALQESRPLHVVLGNEACDLDSTVSALALAFYLAKTTEAEEVFVPVLNIKRSELPLRGDIVFFLQKVHIPESILIFRDEIDLHALYQAGQLTLILVDHHILSKSDTALEEAVAEVLDHRPIEPKHCPPCHVSVELVGSCATLVTERILQGAPEILDRQTAALLHGTIILDCVNMDLKIGKATPKDSKYVEKLEALFPDLPKRNDIFDSLQKAKFDVSGLTTEQMLRKDQKTIYRQGVKVAISAIYMDLEAFLQRSNLLADLHAFCQAHSYDVLVAMTIFFNTHNEPVRQLAIFCPHVALQTTICEVLERSHSPPLKLTPASSTHPNLHAYLQGNTQVSRKKLLPLLQEALSAYFDSMKIPSGQPETADVSREQVDKELDRASNSLISGLSQDEEDPPLPPTPMNSLVDECPLDQGLPKLSAEAVFEKCSQISLSQSTTASLSKK [PRUNE] | 0.764 | 0.775 | 50.3 | 49.6 | 0.182 | -0.0758
6 | MEEAELVKGRLQAITDKRKIQEEISQKRLKIEEDKLKHQHLKKKALREKWLLDGISSGKEQEEMKKQNQQDQHQIQVLEQSILRLEKEIQDLEKAELQISTKEEAILKKLKSIERTTEDIIRSVKVEREERAEESIEDIYANIPDLPKSYIPSRLRKEINEEKEDDEQNRKALYAMEIKVEKDLKTGESTVLSSIPLPSDDFKGTGIKVYDDGQKSVYAVSSNHSAAYNGTDGLAPVEVEELLRQASERNSKSPTEYHEPVYANPFYRPTTPQRETVTPGPNFQERIKIKTNGLGIGVNESIHNMGNGLSEERGNNFNHISPIPPVPHPRSVIQQAEEKLHTPQKRLMTPWEESNVMQDKDAPSPKPRLSPRETIFGKSEHQNSSPTCQEDEEDVRYNIVHSLPPDINDTEPVTMIFMGYQQAEDSEEDKKFLTGYDGIIHAELVVIDDEEEEDEGEAEKPSYHPIAPHSQVYQPAKPTPLPRKRSEASPHENTNHKSPHKNSISLKEQEESLGSPVHHSPFDAQTTGDGTEDPSLTALRMRMAKLGKKVI [PALMD] | -0.598 | 0.967 | 53.2 | 53.1 | 0.412 | 0.124
